Results on seven molecules are retold here after article PMC3351156 (Nucleic Acids Research, 2012).

B1: MDC1^27–138 (MDC1 FHA domain, residues 27–138) (domain or fragment, UniProt Q14676 27-138, looked up)
chain: NVEPVGRLHIFSGAHGPEKDFPLHLGKNVVGRMPDCSVALPFPSISKQHAEIEILAWDKAPILRDCGSLNGTQILRPPKVLSPGVSHRLRDQELILFADLLCQYHRLDVSLP
B4: MDC1^2–133 (unphosphorylated) (domain or fragment, UniProt Q14676 2-133, looked up)
chain: EDTQAIDWDVEEEEETEQSSESLRCNVEPVGRLHIFSGAHGPEKDFPLHLGKNVVGRMPDCSVALPFPSISKQHAEIEILAWDKAPILRDCGSLNGTQILRPPKVLSPGVSHRLRDQELILFADLLCQYHRL

Like-named read-outs stand apart in the source and are kept apart here. Non-standard residues stand in square brackets, D forms with d. No end group written: not given here. pT = C[C@@H](OP(=O)(O)O)[C@H](N)C(=O)O

Series [1] concerns the target Mutator 2 FHA domain (Drosophila melanogaster) (Drosophila melanogaster).
Series [2] concerns the molecule itself. Put plainly: SEC. In general terms: In gel filtration, larger molecules generally elute earlier.
The target of series [3] is B1. Briefly: ITC.
Series [4] has as its target B4. Put plainly: AUC.
The next series addresses T1, SMT3-MDC1^2–133-T98A (UniProt Q14676 2-133, T98A).
T1 sequence (looked up): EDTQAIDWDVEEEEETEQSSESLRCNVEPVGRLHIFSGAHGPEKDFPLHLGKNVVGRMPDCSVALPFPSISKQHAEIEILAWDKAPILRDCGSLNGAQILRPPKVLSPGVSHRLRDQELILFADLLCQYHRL
Briefly: ITC. In general terms: Isothermal titration calorimetry measures the heat released or taken up as one component is titrated into another.

Series [5] concerns the molecule itself. Put plainly: SEC. The source holds these as a separate data set.
Series [6] concerns the molecule itself. Put plainly: AUC.
Series [7] deals with the molecule itself. Put plainly: SEC. This is another data set of the same source.
Series [8] concerns the molecule itself. Briefly: AUC. This is another data set of the same source.

Broadly, the stoichiometry N is the number of molecules, sites or subunits per partner or assembly. Consider “Mutator 2 FHA domain (Drosophila melanogaster) (domain or fragment)”, for which the stoichiometry N in series [1] amounted to 2.
Consider NIIGRHTNCDVTLPAQSVSKKHAIIEVEADCHTLCDQGSLNKTRRGKAAI (domain or fragment) [FHA domain of Xenopus tropicalis MDC1], for which the “stoichiometry N” value in “SEC [2]” worked out at 2.
One may read the Kd as the equilibrium constant for the complex coming apart. High values mean a looser complex, low ones a tighter complex. Regarding MED[pT]QAID [phosphopeptide MED(pT)QAID (pT4-8P)], the equilibrium dissociation constant (Kd) in series [3] was 40 ± 3 µM; in series [4], 20 µM. In the series with SMT3-MDC1^2–133-T98A, the “fold reduction of binding affinity against SMT3-MDC1^2–133” value turned out to be 7 fold.
Turning to B1, the “stoichiometry N” value in the series “SEC [5]” came out at 2.

B2: pT4-MDC1^2–133 (T4-phosphorylated MDC1^2–133) (domain or fragment, UniProt Q14676 2-133, looked up)
chain: EDTQAIDWDVEEEEETEQSSESLRCNVEPVGRLHIFSGAHGPEKDFPLHLGKNVVGRMPDCSVALPFPSISKQHAEIEILAWDKAPILRDCGSLNGTQILRPPKVLSPGVSHRLRDQELILFADLLCQYHRL
modifications: phosphothreonine at 4
In the case of B2, in the series “AUC [6]”, the affinity, expressed as Kd, was 0.035 µM.

B3: pT4-MDC1^2–133-R58A (domain or fragment, UniProt Q14676 2-133, looked up)
chain: EDTQAIDWDVEEEEETEQSSESLRCNVEPVGRLHIFSGAHGPEKDFPLHLGKNVVGAMPDCSVALPFPSISKQHAEIEILAWDKAPILRDCGSLNGTQILRPPKVLSPGVSHRLRDQELILFADLLCQYHRL
modifications: phosphothreonine at 4
As for B3, the binding result in “SEC [7]” is “binds”.
B4: the figures for the Kd in “AUC [8]” and in the series “AUC [6]” were 16 µM and 9.2 µM, respectively.
